Measured values reported in patent US20210393800A1, “PREPARATION AND APPLICATION OF SUPRAMOLECULAR SELF-ASSEMBLED HYALURONIC ACID HYDROGEL” (PHI BioMed Inc., priority 2018, published 2021).

Assay: Protein release experiment (EGF in supernatant by HPLC)
Assay type: physicochemical
Conditions: 20 ug/ml in HA-Ad/HA-CD hydrogel, 500 ul PBS; for amount of EGF released over time (rank order): supernatant by HPLC according to date
Procedure: Aldehyde groups were introduced to the hyaluronic acid-adamantane (HA-Ad) derivative and hyaluronic acid (HA) using […].
The HA-Ad derivative and HA, to which the aldehyde group had been introduced, were allowed to react with an EGF protein using sodium cyanoborohydride to induce an aldehyde-amine reaction, thereby preparing conjugates. Through the aldehyde-amine reaction, a HA-Ad-EGF conjugate and a HA-EGF conjugate were prepared.
Each of EGF, the prepared HA-Ad-EGF conjugate, and the prepared HA-EGF conjugate was added at a concentration of 20 ug/ml to a 5 wt % hyaluronic acid-adamantane (HA-Ad) derivative solution. 50 ul of a 5 wt % hyaluronic acid-cyclodextrin (HA-CD) derivative solution was added to 50 ul of each of the resulting solutions and then mixed to prepare a hydrogel.
The hydrogel was input into an E-tube and centrifuged to remove air bubbles inside the gel. 500 ul of PBS was added to each hydrogel.
The concentration of EGF included in a supernatant was analyzed by high-performance liquid chromatography (HPLC) according to date.

Row | Substance | amount of EGF released over time (rank order) | protein release behaviour
1 | EGF: EGF protein used by itself in preparation of the hydrogel | HA-Ad-EGF<HA-EGF<EGF | 
2 | HA-Ad-EGF: EGF protein bound to aldehyde-modified HA-Ad derivative through an aldehyde-amine reaction; carried in the hydrogel | HA-Ad-EGF<HA-EGF<EGF | release a constant concentration of protein most slowly for a long period of time
3 | HA-EGF: EGF protein bound to aldehyde-modified hyaluronic acid through an aldehyde-amine reaction; carried in the hydrogel | HA-Ad-EGF<HA-EGF<EGF | 
